# Assay results: patent US20160039904A1, “STABILIZED SINGLE HUMAN CD4 DOMAINS AND FUSION PROTEINS” (priority 2013, published 2016)
# Legend:
# Experiment in all cases: cell-based or functional assay
# [1] = molecular target: HIV-1 Env of isolate 55815.EC3 (HIV-1)
# [2] = molecular target: HIV-1 Env of isolate 57128.VRC18 (HIV-1)
# [3] = molecular target: HIV-1 Env of isolate A07412VRC12A (HIV-1)
# [4] = molecular target: HIV-1 Env of isolate AE03 (HIV-1)
# [5] = molecular target: HIV-1 Env of isolate AE20 (HIV-1)
# [6] = molecular target: HIV-1 Env of isolate BZ167.ec9 (HIV-1)
# [7] = molecular target: HIV-1 Env of isolate Bal.EC1 TC (HIV-1)
# [8] = molecular target: HIV-1 Env of isolate CAM0015BBY.EC3 (HIV-1)
# [9] = molecular target: HIV-1 Env of isolate CH117 (HIV-1)
# [10] = molecular target: HIV-1 Env of isolate CH119 (HIV-1)
# [11] = molecular target: HIV-1 Env of isolate CH64 (HIV-1)
# [12] = molecular target: HIV-1 Env of isolate CH70 (HIV-1)
# [13] = molecular target: HIV-1 Env of isolate CH91 (HIV-1)
# [14] = molecular target: HIV-1 Env of isolate CM240.EC1 (HIV-1)
# [15] = molecular target: HIV-1 Env of isolate CNE107 (HIV-1)
# [16] = molecular target: HIV-1 Env of isolate CNE11 (HIV-1)
# [17] = molecular target: HIV-1 Env of isolate CNE15 (HIV-1)
# [18] = molecular target: HIV-1 Env of isolate CNE16 (HIV-1)
# [19] = molecular target: HIV-1 Env of isolate CNE17 (HIV-1)
# [20] = molecular target: HIV-1 Env of isolate CNE20 (HIV-1)
# [21] = molecular target: HIV-1 Env of isolate CNE23 (HIV-1)
# [22] = molecular target: HIV-1 Env of isolate CNE3 (HIV-1)
# [23] = molecular target: HIV-1 Env of isolate CNE30 (HIV-1)
# [24] = molecular target: HIV-1 Env of isolate CNE40 (HIV-1)
# [25] = molecular target: HIV-1 Env of isolate CNE46 (HIV-1)
# [26] = molecular target: HIV-1 Env of isolate CNE47 (HIV-1)
# [27] = molecular target: HIV-1 Env of isolate CNE5 (HIV-1)
# [28] = molecular target: HIV-1 Env of isolate CNE53 (HIV-1)
# [29] = molecular target: HIV-1 Env of isolate CNE57 (HIV-1)
# [30] = molecular target: HIV-1 Env of isolate CNE59 (HIV-1)
# [31] = molecular target: HIV-1 Env of isolate CNE6 (HIV-1)
# [32] = molecular target: HIV-1 Env of isolate CNE65 (HIV-1)
# [33] = molecular target: HIV-1 Env of isolate CNE66 (HIV-1)
# [34] = molecular target: HIV-1 Env of isolate CNE68 (HIV-1)
# [35] = molecular target: HIV-1 Env of isolate CNE7 (HIV-1)
# [36] = molecular target: HIV-1 Env of isolate CNE9 (HIV-1)
# [37] = molecular target: HIV-1 Env of isolate GS-015.EC12 (HIV-1)
# [38] = molecular target: HIV-1 Env of isolate GX2010.36 (HIV-1)
# [39] = molecular target: HIV-1 Env of isolate KNH1144.EC1 (HIV-1)
# [40] = molecular target: HIV-1 Env of isolate N1 1046.e3 PV (HIV-1)
# [41] = molecular target: HIV-1 Env of isolate PBL286.VRC36aPV (HIV-1)
# [42] = molecular target: HIV-1 Env of isolate YN192.31 (HIV-1)
substance,measurement,setting,value
D1D2Fc (from UniProt P01730 26-203) (Fc fusion),"IC50, neutralization in TZM-bl cell-based assay",[1],6.2 nM
same,"IC90, neutralization in TZM-bl cell-based assay",[1],116 nM
same,"IC90, neutralization in TZM-bl cell-based assay",[2],41 nM
same,"IC50, neutralization in TZM-bl cell-based assay",[3],57 nM
same,"IC90, neutralization in TZM-bl cell-based assay",[3],> 250 nM
same,neutralization IC50,[4],> 250 nM
same,neutralization IC90,[4],> 250 nM
same,neutralization IC50,[5],50 nM
same,neutralization IC90,[5],> 250 nM
same,"IC50, neutralization in TZM-bl cell-based assay",[6],13 nM
same,"IC90, neutralization in TZM-bl cell-based assay",[6],60 nM
same,"IC50, neutralization in TZM-bl cell-based assay",[7],0.6 nM
same,"IC50, neutralization in TZM-bl cell-based assay",[8],41 nM
same,"IC90, neutralization in TZM-bl cell-based assay",[8],> 250 nM
same,neutralization IC50,[9],27 nM
same,neutralization IC90,[9],> 250 nM
same,neutralization IC50,[10],85 nM
same,neutralization IC90,[10],> 250 nM
same,neutralization IC50,[11],48 nM
same,neutralization IC90,[11],> 250 nM
same,neutralization IC50,[12],7.3 nM
same,neutralization IC90,[12],109 nM
same,neutralization IC50,[13],35 nM
same,neutralization IC90,[13],> 250 nM
same,"IC50, neutralization in TZM-bl cell-based assay",[14],20 nM
same,"IC90, neutralization in TZM-bl cell-based assay",[14],> 250 nM
same,neutralization IC50,[15],135 nM
same,neutralization IC90,[15],> 250 nM
same,neutralization IC50,[16],> 250 nM
same,neutralization IC90,[16],> 250 nM
same,neutralization IC50,[17],106 nM
same,neutralization IC90,[17],> 250 nM
same,neutralization IC50,[18],11 nM
same,neutralization IC90,[18],229 nM
same,neutralization IC50,[19],11 nM
same,neutralization IC90,[19],231 nM
same,neutralization IC50,[20],65 nM
same,neutralization IC90,[20],> 250 nM
same,neutralization IC50,[21],> 250 nM
same,neutralization IC90,[21],> 250 nM
same,neutralization IC50,[22],> 250 nM
same,neutralization IC90,[22],> 250 nM
same,neutralization IC50,[23],17 nM
same,neutralization IC90,[23],211 nM
same,neutralization IC50,[24],0.06 nM
same,neutralization IC90,[24],0.5 nM
same,neutralization IC50,[25],99 nM
same,neutralization IC90,[25],> 250 nM
same,neutralization IC50,[26],152 nM
same,neutralization IC90,[26],> 250 nM
same,neutralization IC50,[27],94 nM
same,neutralization IC90,[27],236 nM
same,neutralization IC50,[28],14 nM
same,neutralization IC90,[28],> 250 nM
same,neutralization IC50,[29],250 nM
same,neutralization IC90,[29],> 250 nM
same,neutralization IC50,[30],10 nM
same,neutralization IC90,[30],220 nM
same,neutralization IC50,[31],68 nM
same,neutralization IC90,[31],192 nM
same,neutralization IC50,[32],15 nM
same,neutralization IC90,[32],115 nM
same,neutralization IC50,[33],159 nM
same,neutralization IC90,[33],> 250 nM
same,neutralization IC50,[34],9.7 nM
same,neutralization IC90,[34],133 nM
same,neutralization IC50,[35],19 nM
same,neutralization IC90,[35],161 nM
same,neutralization IC50,[36],9.9 nM
same,neutralization IC90,[36],63 nM
same,"IC50, neutralization in TZM-bl cell-based assay",[37],0.2 nM
same,neutralization IC50,[38],12 nM
same,neutralization IC90,[38],> 250 nM
same,"IC50, neutralization in TZM-bl cell-based assay",[39],4.8 nM
same,"IC50, neutralization in TZM-bl cell-based assay",[40],183 nM
same,"IC90, neutralization in TZM-bl cell-based assay",[40],> 250 nM
same,"IC50, neutralization in TZM-bl cell-based assay",[41],87 nM
same,"IC90, neutralization in TZM-bl cell-based assay",[41],> 250 nM
same,neutralization IC50,[42],155 nM
same,neutralization IC90,[42],> 250 nM
